Experimental data as given in publication PMC12377726 (Proceedings of the National Academy of Sciences of the …, 2025).

B1: G001_gp1_V06_VRC01c_2021-0005 (antibody, V domains shown)
VH: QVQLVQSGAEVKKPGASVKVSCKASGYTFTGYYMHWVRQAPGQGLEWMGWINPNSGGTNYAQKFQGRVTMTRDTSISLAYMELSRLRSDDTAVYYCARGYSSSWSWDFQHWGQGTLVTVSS
VL: DIQMTQSPSTLSASVGDRVTITCRASQSISSWLAWYQQKPGKAPKLLIYKASSLESGVPSRFSGSGSGTEFTLTISSLQPDDFATYYCQQYETFGQGTKVEIK
B2: G001_gp1_V06_VRC01c_2021-0018 (antibody, V domains shown)
VH: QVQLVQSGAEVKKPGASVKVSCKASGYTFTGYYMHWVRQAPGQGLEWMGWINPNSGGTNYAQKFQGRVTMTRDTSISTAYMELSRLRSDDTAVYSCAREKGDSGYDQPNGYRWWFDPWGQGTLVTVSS
VL: DIQMTQSPSTLSASVGDRVTITCRASQSISSWLAWYQQKPGKAPKLLIYKASSLESGVPSRFSGSGSGTEFTLTISSLQPDDFATYYCQQYETFGQGTKVEIK
B3: G001_gp1_V06_VRC01c_2021-0015 (antibody, V domains shown)
VH: not shown
VL: DIQMTQSPSTLSASVGDRVTITCRASQSISSWLAWYQQKPGKAPKLLIYKASSLESGVPSRFSGSGSGTEFTLTISSLQPDDFATYYCQQWETFGQGTKVEIK
B4: G001_LD_V05_VRC01c_17 (antibody, V domains shown)
VH: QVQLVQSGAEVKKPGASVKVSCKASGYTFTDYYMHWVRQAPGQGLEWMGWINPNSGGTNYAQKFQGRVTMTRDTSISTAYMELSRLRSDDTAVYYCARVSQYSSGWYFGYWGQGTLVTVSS
VL: DIQMTQSPSSLSASVGDRVTITCQASQDISNYLNWYQQKPGKAPKLLIYDASNLETGVPSRFSGSGSGTDFTFTISSLQPEDIATYYCQQYEFFGGGTKVEIK
B5: G001_LD_V05_VRC01c_30 (antibody, V domains shown)
VH: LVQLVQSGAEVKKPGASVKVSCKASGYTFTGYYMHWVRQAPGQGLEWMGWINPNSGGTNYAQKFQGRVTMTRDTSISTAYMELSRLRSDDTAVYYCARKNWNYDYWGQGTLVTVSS
VL: DIQMTQSPSSLSTSVGDRVTITCQASQDITNYLNWYQQKPGKAPKLLIYDASNLETGVPSRFSGSGSGTDFTFTISSLQPEDIATYYCQQYDNFGGGTKVEIK
B6: G001_gp1_V06_VRC01c_2021-0004 (antibody, V domains shown)
VH: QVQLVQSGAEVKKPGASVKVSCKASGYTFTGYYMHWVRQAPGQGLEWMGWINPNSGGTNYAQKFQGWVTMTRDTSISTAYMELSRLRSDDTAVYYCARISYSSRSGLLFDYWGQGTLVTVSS
VL: DIQMTQSPSSLSASVGDRVTITCQASQDISNYLNWYQQKPGKAPKLLIYDASNLETGVPSRFSGSGSGTDFTFTISSLQPEDIATYYCQQYNTFGGGTKVEIK
B7: G001_gp1_V06_VRC01c_2021-0008 (antibody, V domains shown)
VH: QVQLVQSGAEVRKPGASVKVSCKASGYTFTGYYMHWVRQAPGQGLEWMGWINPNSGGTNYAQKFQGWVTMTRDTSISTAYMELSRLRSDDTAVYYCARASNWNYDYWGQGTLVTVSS
VL: DIQMTQSPSSLSASVGDRVTITCQASQDISNYLNWYQQKPGKAPKLLIYDASNLQTGVPSRFSGSGSGTDFTFTISSLQPEDIATYYCQQYDFFGGGTKVEIK
B8: G001_LD_V05_VRC01c_21 (antibody, V domains shown)
VH: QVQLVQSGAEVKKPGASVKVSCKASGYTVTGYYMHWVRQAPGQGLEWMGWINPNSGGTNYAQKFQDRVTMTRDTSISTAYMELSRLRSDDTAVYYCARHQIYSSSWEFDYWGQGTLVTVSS
VL: DIQMTQSPSSLSASVGDRVTITCQASQDISNYLNWYQQKPGKAPKLLIYDASNLETGVPSRFSGSGSGTDFTFTISILQPEDTATYYCQQYDTFGPGTKVDIK
B9: G001_LD_V05_VRC01c_20 (antibody, V domains shown)
VH: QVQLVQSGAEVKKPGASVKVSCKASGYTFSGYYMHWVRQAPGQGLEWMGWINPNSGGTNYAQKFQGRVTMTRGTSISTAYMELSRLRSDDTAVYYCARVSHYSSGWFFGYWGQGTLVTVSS
VL: DIQMTQSPSSLSASVGDRVTITCQASQDISNYLNWYQQKPGKAPKLLIYDASNLETGVPSRFSGSGSGTDFTFTISSLQPEDIATYYCQQYDFFGGGTKVEIK
B10: G001_LD_V05_VRC01c_29 (antibody, V domains shown)
VH: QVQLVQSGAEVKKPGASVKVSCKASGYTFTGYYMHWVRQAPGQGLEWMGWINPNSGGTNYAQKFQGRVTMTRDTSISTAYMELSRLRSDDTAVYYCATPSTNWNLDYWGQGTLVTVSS
VL: DIQMTQSPSSLSASVGDRVTITCQASQDISNYLNWYQQKPGKAPKLLIYDASNLETGVPSRFSGSGSGTDFTFSISSLQPDDIATYYCQQYEGFGPGTKVDIK
B11: G001_gp1_V06_VRC01c_2021-0021 (antibody, V domains shown)
VH: QVQLVQSGAEVKKPGASVKVSCKASGYTFTGDYMHWVRQAPGQGLEWMGWINPNSGGTNYAQKFEGWVTMTRDTSISTAYMELSRLRSDDTAVYYCARTPYSSSWLFNYWGQGTLVTVSS
VL: DIQMTQSPSSLSASVGDRVTITCQASQDISNFLNWYQQKPGKAPKLLIYDASNLETGVPSRFSGSGSGTNFTFTISSLQPEDIATYYCQQYDLFGPGTKVDIK
B12: G001_gp1_V06_VRC01c_2021-0020 (antibody, V domains shown)
VH: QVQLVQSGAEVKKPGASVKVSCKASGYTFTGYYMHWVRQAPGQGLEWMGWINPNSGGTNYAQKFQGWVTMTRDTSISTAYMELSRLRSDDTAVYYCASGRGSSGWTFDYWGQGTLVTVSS
VL: DIQMTQSPSSLSASVGDRVTITCQASQDISNFLNWFQQKPGKAPKLLIYDASNLETGVPSRFSGSGSGTDFTFTISSLQPEDIATYYCQQYDNFGPGTKVDIK
B13: G001_gp1_V06_VRC01c_2021-0006 (antibody, V domains shown)
VH: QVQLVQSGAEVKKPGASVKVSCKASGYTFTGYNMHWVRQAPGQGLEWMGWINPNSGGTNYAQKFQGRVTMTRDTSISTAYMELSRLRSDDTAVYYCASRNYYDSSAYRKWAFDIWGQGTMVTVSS
VL: DIQMTQSPSSLSASVGDRVTITCQASQDINNYLNWYQQKPGKAPKLLIYDASNLETGVPSRFSGSGSGTDFTFTISSLQPEDIATYYCQQYETFGQGTRLEIK
B14: G001_gp1_V06_VRC01c_2021-0003 (antibody, V domains shown)
VH: QVQLVQSGAEVKKPGASVKVSCKASGYTFTGYYIHWVRQAPGQGLEWMGWINPNSGGTNYAQKFQGWVTMTRDTSISTAYMELRRLRSDDTAVYYCARVKDYYDSIGGWYFDLWGRGTLVTVSS
VL: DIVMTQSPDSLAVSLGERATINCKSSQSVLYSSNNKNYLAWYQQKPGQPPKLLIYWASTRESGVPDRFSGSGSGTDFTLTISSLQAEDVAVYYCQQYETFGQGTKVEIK
B15: G001_gp1_V06_VRC01c_2021-0010 (antibody, V domains shown)
VH: QVQLVQSGAEVKKPGASVKVSCKASGYTFTGYYMQWMRQAPGQGLEWMGWINPNSGGTNYAQKFQGWVTMTRDTSISTVYMELSRLRSDDTAVYYCARGFTNWNLDYWGQGTLVTVSS
VL: EIVLTQSPGTLSLSPGERATLSCRASQSVSSSYLAWYQQKPGQAPRLLIYGASSRATGIPDRFSGSGSGTDFTLTISRLEPEDFAMYYCQQYETFGQGTKVEIK
B16: G001_gp1_V06_VRC01c_2021-0019 (antibody, V domains shown)
VH: QVQLVQSGAEVKKPGASVKVSCKASGYTFTGYYMHWVRQAPGQGLEWMGWINPNSGGTNYAQKFQDWVTMTRDTSISTAYMELRRLRSDDTAVYYCARPSYRSGWDMWYWGQGTLVTVSS
VL: EIVLTQSPGTLSLSPGERATLSCRASQSVSSSYLAWYQQKPGQAPRLLIYGASSRATGIPDRFSGSGSGTDFTLTISRLEPEDFAVYYCQQYEGFGPGTKVDIK
B17: G001_gp1_V06_VRC01c_2021-0017 (antibody, V domains shown)
VH: not shown
VL: EIVLTQSPGTLSLSPGERATLSCRASQSVSSSYLAWYQQKPGQAPRLLIYGASSRATGIPDRFSGSGSGTDFTLTISRLEPEDFAVYYCQQYEFFGPGTKVDIK
B18: G001_gp1_V06_VRC01c_2021-0016 (antibody, V domains shown)
VH: QVQLVQSGAEVKKPGASVTVSCKASGYTFTGYYMHWVRQAPGQGLEWMGWINPTSGGTNYGQKFQGRVTMTRDTSISTAYMELSRLRSDDTAVYYCAITTVTSTWAFDIWGQGTMVTVSS
VL: EIVLTQSPGTLSLSPGERATLSCRASQSVSNNYLAWYQQTPGQAPRLLIYGASSRATGIPDRFSGSGSGTDFTLTISRLEPEDFAVYYCQQYETFGQGTKVEIK
B19: G001_gp1_V06_VRC01c_2021-0007 (antibody, V domains shown)
VH: QVQLVQSGAEVKKPGASVKVSCKASGYTFTGSYMHWVRQAPGQGLEWMGWINPNSGGTNYAQKFQGWVTMTRDTSISTAYMELSRLRSDDTAVYYCATASSGSYYWYFDLWGRGTLVTVSS
VL: EIVMTQSPATLSVSPGERATLSCRASQSVSSNLAWYQQKPGQAPRLLIYGASTRATGIPARFSGSGSGTEFTLTISSLQSEDFAVYYCQQYETFGQGTKVEIK
B20: G001_gp1_V06_VRC01c_2021-0012 (antibody, V domains shown)
VH: not shown
VL: EIVMTQSPATLSVSPGERATLSCRASQSFSSNLAWYQQKSGQAPRLLIYGASTRATGIPARFSGSGSGTEFTLTISSLQSEDFAVYYCQQYHTFGPGTKVDIK
B21: G001_gp1_V06_VRC01c_2021-0014 (antibody, V domains shown)
VH: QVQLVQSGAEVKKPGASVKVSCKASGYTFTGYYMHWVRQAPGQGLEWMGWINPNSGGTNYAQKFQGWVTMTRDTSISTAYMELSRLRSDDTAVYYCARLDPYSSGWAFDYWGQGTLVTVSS
VL: EIVMTQSPATLSVSPGERATLSCRASQSVSSNLAWYQQKPGQAPRLLIYGASTRATGIPARFSGSGSGTEFTLTISSLQSEDFAVYYCQQYGTFGQGTKVEIK
B22: G001_gp1_V06_VRC01c_2021-0011 (antibody, V domains shown)
VH: QVQLVQSGAEVKKPGASVKVSCKASGYTFTGYYLHWVRQAPGQGLEWMGWINPNSGGTNYAQKFQGWVTMTRDTSISTAYMELSRLRSDDTAVYYCAVKDLDTMVRGGAFVFWGQGTMVTVSS
VL: DIQLTQSPSFLSASVGDRVTITCRASQGISSYLAWYQQKPGKAPKLLIYAASTLQSGVPSRFSGSGSGTEFTLTISSLQPEDFATYYCQQLNSFGGGTKVEIK

Molecular target: eOD-GT8 (engineered outer domain germline-targeting version 8), monomer (HIV-1 gp120 engineered outer domain, …)

Question: Does B1 bind?
Answer: binds

Question: Does B2 bind?
Answer: binds

Question: Does B3 bind?
Answer: binds

Question: Does B4 bind?
Answer: binds

Question: Does B5 bind?
Answer: binds

Question: Does B6 bind?
Answer: binds

Question: Does B7 bind?
Answer: binds

Question: Does B8 bind?
Answer: binds

Question: Does B9 bind?
Answer: binds

Question: Does B10 bind?
Answer: binds

Question: Does B11 bind?
Answer: binds

Question: Does B12 bind?
Answer: binds

Question: Does B13 bind?
Answer: binds

Question: Does B14 bind?
Answer: binds

Question: Does B15 bind?
Answer: binds

Question: Does B16 bind?
Answer: binds

Question: Does B17 bind?
Answer: binds

Question: Does B18 bind?
Answer: binds

Question: Does B19 bind?
Answer: binds

Question: Does B20 bind?
Answer: binds

Question: Does B21 bind?
Answer: binds

Question: Does B22 bind?
Answer: binds
